The supplement of paper PMC12764529
± gives the half width of the 95% confidence interval.

How the values were obtained:
[1] = folding stability dG unfold (combined trypsin and chymotrypsin); higher = more stable
How it was run: (§1)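 How resistant each design was to proteolysis was captured as K50, inferred by Bayesian fitting of sequencing counts. Unfolding free energy was then derived relative to a sequence-predicted unfolded-state K50 and a shared folded-state K50, per protease or combined. Digestion used trypsin and chymotrypsin at 11 threefold-diluted concentrations plus a no-protease condition, on mini-proteins under 80 residues without cysteine in a PA-tagged cDNA display construct. Designs were kept only when AlphaFold2 dimer inter-PAE was above 15.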

[2] = folding stability dG unfold from trypsin proteolysis; higher = more stable
How it was run: as §1

[3] = folding stability dG unfold from chymotrypsin proteolysis; higher = more stable
How it was run: as §1

Sequence	folding stability dG unfold [1] [kcal/mol]	folding stability dG unfold [2] [kcal/mol]	folding stability dG unfold [3] [kcal/mol]
SAMKLTTLSESSDPATGVRYLTVAIPSSQDDLIKEIAEELEKKGVKATILTPNVPAGSSVTIKLEFKGKSAG [r14_354_JUSTAS]	0.475 ± 0.17	0.109 ± 0.17	0.66 ± 0.16
SAGGNIKVRREPRPNGQYRVKITIPDPDGKPIEIEYRMPPGMDSPEQAQKEAIEVVKEFAKKHNIKISAGGS [r8_464_TrROS]	0.605 ± 0.21	0.423 ± 0.17	0.733 ± 0.17
SAGGLTWEEAREIAEEIANMEVPSPNGMPMKVKVDIEIDPPNGYFRVDVKVEMPGKPQKFPLEIPLKSAGGS [r16_812_TrROS]	0.673 ± 0.25	0.607 ± 0.16	0.536 ± 0.17
SAGGMELVIAVNSKEEAKKAAEEIKKKTPKGFKLEIEIEEYDLKENVEPEDKDIENIKVYLIKVKLESAGGS [r16_795_TrMRF]	1.69 ± 0.23	1.4 ± 0.13	2.01 ± 0.21
SAGGSAGGSASVEEIADKIQQLHGVDVEVTEPQPNSNGYPRWRIKVDLKGLPEKWMQELLNSAGGSAGGSAG [r3_40_TrROS]	0.372 ± 0.11	0.681 ± 0.17	0.217 ± 0.19
SAIKIKNVEFNDNGWMEIEIPYPENGREVTIRMDPNGNIQVEEYPPNDGKPKRKTIPGMSIEEILEELLSAG [r14_760_TrROS]	0.55 ± 0.33	1.08 ± 0.24	0.25 ± 0.13
SAGGSASMPLTLTFTTPTRTFTVTIPPSKVSSVTVEEKGPTITVTVEAPDSTITINITPSSVTISASAGGSA [r15_598_JUSTAS]	3.8 ± 0.12	2.98 ± 0.13	4.19 ± 0.13
SAGGSAGGSAGKIDPKDIEKVEFEIDEESGKGKAFVILKNGEPAEIEFSSIEEAIKALLGSAGGSAGGSAGG [r11_339_TrMRF]	1.37 ± 0.16	1.93 ± 0.099	0.981 ± 0.14
SAGEVELEVPIEALKKLPNLEGATVRVTVKLNENGELEITIEVEKAPEPPLTEEEKKKLLEEEEKKKKSAGG [r19_313_TrROS_Hall]	1.06 ± 0.48	-0.203 ± 0.63	1.31 ± 0.31
SANDDDWVTVIFEIPIVRKDPDGKPEKHPFRLMVQVHPDGRVEINIMYPNGRPIASQTVPPGQTLEDFISAG [r14_559_TrROS]	3.38 ± 0.23	2.63 ± 0.13	3.84 ± 0.077
SSMPLEEIVERVAEELGIPEEELERIESVDPGVVDPSPEGPTRVELRITLRDPHSDTTTEYRVEVEDPGGSA [r9_230_JUSTAS]	-0.501 ± 0.29	-0.784 ± 0.3	-0.503 ± 0.46
SAGGSAGGSAGVVLKEPKGGVPKTITEDPNHPGLYTTGSPDGTISTRPLEIKPEEEPVLLSAGGSAGGSAGG [r17_85_JUSTAS]	-0.739 ± 0.55	-1.01 ± 0.49	-0.542 ± 0.4
SAGGSAGGSAGGKVVKKVKVLTKTPKGGYKVIEVDFTDPSAVVEEAKKAGLEVLKVEEVSAGGSAGGSAGGS [r10_882_TrMRF]	0.728 ± 0.098	-0.045 ± 0.079	1.05 ± 0.094
SAGGSEIRVEYDPSTGELRVLIVLPDGSVILKTVRVEPIDPGIAPDGSPIGAAVSISVEIVPPGELSAGGSA [r2_195_TrMRF]	3.39 ± 0.087	3.23 ± 0.1	3.5 ± 0.037
SAGGSAGGSAGGSPVAAKTLSKSTSLLPNGKVKTSTTTAFPTGETTTTTTTTPLSLTLTSAGGSAGGSAGGS [r10_1206_JUSTAS]	-0.0493 ± 0.12	-0.654 ± 0.27	0.158 ± 0.17
SAGGSMKLTTTTPDGKPFEADVTEYPTFYKITFKVGNKEYTLLANPSTNTVDGNVDGFPFKLKLNPSAGGSA [r2_194_TrMRF]	1.25 ± 0.18	1.28 ± 0.1	1.25 ± 0.18
SAGGSAGGSAGGAPDLSLPDVRPRVLVRNPATGKWYEFTSLEELEREIKSGRAEVLEISSAGGSAGGSAGGS [r10_520_TrMRF]	0.573 ± 0.16	0.327 ± 0.088	0.704 ± 0.11
SAGGSAGGGMPSITLLETVEEKLPGSRTRVTTLSYDPATGNLVVTTTTFASPGTSTTSTTVLPPSAGGSAGG [r6_745_JUSTAS]	1.33 ± 0.074	1.13 ± 0.038	1.51 ± 0.069
SEMSVEEILKKIAEELLKKNPNKEVTKEIEIEFEKPDPEGKRLLKEKVKATIKVTPDKIEILSESREILLSA [r9_361_JUSTAS]	1.31 ± 0.18	1.52 ± 0.066	1.07 ± 0.054
SAGGSAAGAERVTYNYMIPNDGKWFMIRITIYRFEVKRDPEDNKYKLDLPPGDQLFINTEIMWFPNSAGGSA [r15_1040_TrROS]	3.73 ± 0.24	2.72 ± 0.12	4.14 ± 0.076
SAGLEDAQKEKRFVIKIEIRHPNGEKVKMTIAFKPGDPEDIRDELRKMGMPPDDLNERNPNLKIDEIEPSAG [r5_430_TrROS]	1.29 ± 0.11	0.646 ± 0.084	1.59 ± 0.079

Sequence	folding stability dG unfold [1] [kcal/mol]	folding stability dG unfold [2] [kcal/mol]	folding stability dG unfold [3] [kcal/mol]
SAGGSAGGSAGGMFVRIEVDGKTILLEADSLEEALAAIRALLPPGEKVKVELVSEEELKSAGGSAGGSAGGS [r10_1167_TrROS_Hall]	2.85 ± 0.047	2.44 ± 0.084	3.04 ± 0.068
SAGGSAGGDPPNVKIEPEIEPRRDPDGKPYVKIPYTIELPDGRPIQIDMWIDPKNGNQGPHIHISAGGSAGG [r6_298_TrROS]	0.64 ± 0.54	0.817 ± 0.24	0.486 ± 0.31
SAGGGWKPIGKEEITLPFGIKVTVDIWTWPDGMIMIMIEIEIPVPPPKPPVPPMSPEDMKDMNEDNGSAGGS [r16_6_TrROS]	3.2 ± 0.43	2.06 ± 0.14	3.8 ± 0.24
SAGGDPPNIEVVPYRVKFGGKPIPIQVFVMPNGQTIVRIKFPNGKKGWMPADDLDELLKNPFEIERVSAGGS [r16_105_TrROS]	1.11 ± 0.14	1.21 ± 0.023	0.998 ± 0.14
SEETLRILIRDPATGELREIEVRAGETVTVTFPDGSTVTLRITVVAAPPPPPKTVTLDPNETVEEGETVLSA [r9_467_TrROS_Hall]	2.1 ± 0.092	2.24 ± 0.084	1.9 ± 0.038
SSEKEVEVTIKIPLYYERPDGTIEEYDIEIKVKVKIDNGGFIAENLEEAIREVLEKLNIPEGHPDAPYFNKS [r1_175_TrMRF]	1.02 ± 0.33	1.72 ± 0.19	0.155 ± 0.48
SAGGSAGGSSLLVLRELADGGVALHLIDVEPDEPVGVETVLDEFRELHPDTPPLPVLILRPDPSAGGSAGGS [r12_262_TrMRF]	0.115 ± 0.073	0.251 ± 0.031	-0.127 ± 0.14
SAGGEWHEISIKFPNPEEIEEALREAFPPGMDVDPDVEPNPNGWEVEIEVPRNNPDRVQNAIKEALDSAGGS [r16_43_TrROS]	0.492 ± 0.11	0.452 ± 0.035	0.469 ± 0.031
SAGGSAGGSAKTYEVKITVTNPNGEKKEITLEVEAETEEELLAAIKALAPPGAKVEIEIREVSAGGSAGGSA [r18_60_TrROS_Hall]	4 ± 0.13	4.33 ± 0.28	3.67 ± 0.075
SAGGMGFEKVGTFKLEDDVIVEIYKGPEKKLVAKVYFPKTGKVIEDPGHPDESIEELIERIKAIAEEESAGG [r13_624_TrMRF]	4.2 ± 0.28	4.48 ± 0.39	4.32 ± 0.07
SAMTVERLPDGSLRITIPDPNSDTTYTIEIRRLPDGSYEVTITTTKPDGSTTTTTRPMSEEEAIAEVLASAG [r14_179_JUSTAS]	3.6 ± 0.055	3.75 ± 0.061	3.54 ± 0.068
SAGSSVTAPFSLPSDLVVDSVTYDPDAKTVTVTVTDPRGGRKAVGTFPVWDPNGNPVLSTADSYTFDNPSAG [r5_434_TrMRF]	-0.128 ± 0.053	-0.417 ± 0.03	-0.0129 ± 0.058
SAGGSAGGSATKTIKVKNADGETVELTVEKREDGSYKITLTFPDGTKKTFTIKPGEKIVIKPSAGGSAGGSA [r18_115_TrROS_Hall]	3.9 ± 0.12	2.42 ± 0.11	4.24 ± 0.098
SAGGSAGGSAGKPITADEVAERVARRLRELFGPDYDINVKVVKVLPGDYVLVDVEITGDLSAGGSAGGSAGG [r11_153_TrMRF]	2.28 ± 0.044	2.27 ± 0.032	2.287 ± 0.021
SMPVGVEELAERLAEEIEKELSEKTGVPVKVEKITVEEDPATGTVTVTITLYLPDGKKIREESLTVPVLESA [r9_60_JUSTAS]	1.53 ± 0.065	1.59 ± 0.051	1.52 ± 0.037
SAGGSAKTKTITLKIKIVDPKTNKVYEFEIKIEVELTLDKNGKLTAKIKKIEIKAPKNSPLLKKLLSAGGSA [r15_258_TrROS_Hall]	2.68 ± 0.24	2.57 ± 0.063	3.18 ± 0.041
SAGGSAGGSAGGSGSMSVSGGPSVIVVTLPGGEKVVLPLDELDELYKLPYVSATTVSLPSAGGSAGGSAGGS [r4_348_JUSTAS]	1.13 ± 0.14	1.45 ± 0.065	0.24 ± 0.18
SAGGKITIEIEEEDGYLVIRIREEKEVYDEETGELKKEEKEITIVLPLEEAKKLAEELNLEIEIVEPSAGGS [r8_337_TrROS_Hall]	2.42 ± 0.23	2.09 ± 0.079	2.49 ± 0.16
SAGGSAMMTLEEAIEKAAKNIPVGEKKIIEIKLEKGTFTVEIEKIGPKEVKIKILKISKGPEEEEISAGGSA [r15_150_TrMRF]	4.61 ± 0.3	3.99 ± 0.23	4.68 ± 0.18
SAGGSAKMTLIIKVSPEMTKEELEELARKLAEELNVKVEIEYDEETGLATVTIEKDGKKIEIIVERSAGGSA [r15_168_TrROS_Hall]	2.49 ± 0.12	1.98 ± 0.083	2.74 ± 0.094
SAGGSAGGKPIWEFELEFPDGYKIRITYWPGYVRVEIHNPDGRQLEVNVPGKSPEDALDALLDASAGGSAGG [r6_459_TrROS]	3.88 ± 0.24	3.32 ± 0.22	4.19 ± 0.19
